Results taken from PMC6635489.

Assays:
Conditions in all cases: glycan lost; control: wild type GluK3
[1] = whole-cell dose-response, 30 µM-30 mM glutamate
[2] = surface biotinylation, anti-GluR6/7 blot, HEK293
[3] = whole-cell patch clamp, 30 mM glutamate, HEK293
[4] = two-pulse 30 mM glutamate protocol, whole-cell patch clamp

Row | Protein | other: glutamate EC50 of channel current, EC50 [1] | localisation_or_trafficking [2] | other: desensitization time constant, other: mean weighted tau_des [3] | other: time constant of recovery from desensitization, other: tau_rec [4]
1 | GluK3: T249A/T397A (protein) parent chain: MTAPWRRLRSLVWEYWAGFLVCAFWIPDSRGMPHVIRIGGIFEYADGPNAQVMNAEEHAFRFSANIINRNRTLLPNTTLTYDIQRIHFHDSFEATKKACDQLALGVVAIFGPSQGSCTNAVQSICNALEVPHIQLRWKHHPLDNKDTFYVNLYPDYASLSHAILDLVQSLKWRSATVVYDDSTGLIRLQELIMAPSRYNIRLKIRQLPIDSDDSRPLLKEMKRGREFRIIFDCSHTMAAQILKQAMAMGMMTEYYHFIFTTLDLYALDLEPYRYSGVNLTGFRILNVDNAHVSAIVEKWSMERLQAAPRAESGLLDGVMMTDAALLYDAVHIVSVCYQRASQMTVNSLQCHRHKPWRFGGRFMNFIKEAQWEGLTGRIVFNKTSGLRTDFDLDIISLKEDGLEKVGVWSPADGLNITEVAKGRGPNVTDSLTNRSLIVTTLLEEPFVMFRKSDRTLYGNDRFEGYCIDLLKELAHILGFSYEIRLVEDGKYGAQDDKGQWNGMVKELIDHKADLAVAPLTITHVREKAIDFSKPFMTLGVSILYRKPNGTNPSVFSFLNPLSPDIWMYVLLAYLGVSCVLFVIARFSPYEWYDAHPCNPGSEVVENNFTLLNSFWFGMGSLMQQGSELMPKALSTRIIGGIWWFFTLIIISSYTANLAAFLTVERMESPIDSADDLAKQTKIEYGAVKDGATMTFFKKSKISTFEKMWAFMSSKPSALVKNNEEGIQRTLTADYALLMESTTIEYITQRNCNLTQIGGLIDSKGYGIGTPMGSPYRDKITIAILQLQEEDKLHIMKEKWWRGSGCPEEENKEASALGIQKIGGIFIVLAAGLVLSVLVAVGEFIYKLRKTAEREQRSFCSTVADEIRFSLTCQRRLKHKPQPPMMVKTDAVINMHTFNDRRLPGKDSMSCSTSLAPVFP | decreases, 6.5 vs 9.5 | no change | no change, 4.3 ± 0.2 vs 3.8 ± 0.5 | 
2 | GluK3: T249A (protein) parent chain: MTAPWRRLRSLVWEYWAGFLVCAFWIPDSRGMPHVIRIGGIFEYADGPNAQVMNAEEHAFRFSANIINRNRTLLPNTTLTYDIQRIHFHDSFEATKKACDQLALGVVAIFGPSQGSCTNAVQSICNALEVPHIQLRWKHHPLDNKDTFYVNLYPDYASLSHAILDLVQSLKWRSATVVYDDSTGLIRLQELIMAPSRYNIRLKIRQLPIDSDDSRPLLKEMKRGREFRIIFDCSHTMAAQILKQAMAMGMMTEYYHFIFTTLDLYALDLEPYRYSGVNLTGFRILNVDNAHVSAIVEKWSMERLQAAPRAESGLLDGVMMTDAALLYDAVHIVSVCYQRASQMTVNSLQCHRHKPWRFGGRFMNFIKEAQWEGLTGRIVFNKTSGLRTDFDLDIISLKEDGLEKVGVWSPADGLNITEVAKGRGPNVTDSLTNRSLIVTTLLEEPFVMFRKSDRTLYGNDRFEGYCIDLLKELAHILGFSYEIRLVEDGKYGAQDDKGQWNGMVKELIDHKADLAVAPLTITHVREKAIDFSKPFMTLGVSILYRKPNGTNPSVFSFLNPLSPDIWMYVLLAYLGVSCVLFVIARFSPYEWYDAHPCNPGSEVVENNFTLLNSFWFGMGSLMQQGSELMPKALSTRIIGGIWWFFTLIIISSYTANLAAFLTVERMESPIDSADDLAKQTKIEYGAVKDGATMTFFKKSKISTFEKMWAFMSSKPSALVKNNEEGIQRTLTADYALLMESTTIEYITQRNCNLTQIGGLIDSKGYGIGTPMGSPYRDKITIAILQLQEEDKLHIMKEKWWRGSGCPEEENKEASALGIQKIGGIFIVLAAGLVLSVLVAVGEFIYKLRKTAEREQRSFCSTVADEIRFSLTCQRRLKHKPQPPMMVKTDAVINMHTFNDRRLPGKDSMSCSTSLAPVFP | decreases, 7.2 vs 9.5 | no change | no change, 3.7 ± 0.4 vs 3.8 ± 0.5 | 
3 | GluK3: T397A (protein) parent chain: MTAPWRRLRSLVWEYWAGFLVCAFWIPDSRGMPHVIRIGGIFEYADGPNAQVMNAEEHAFRFSANIINRNRTLLPNTTLTYDIQRIHFHDSFEATKKACDQLALGVVAIFGPSQGSCTNAVQSICNALEVPHIQLRWKHHPLDNKDTFYVNLYPDYASLSHAILDLVQSLKWRSATVVYDDSTGLIRLQELIMAPSRYNIRLKIRQLPIDSDDSRPLLKEMKRGREFRIIFDCSHTMAAQILKQAMAMGMMTEYYHFIFTTLDLYALDLEPYRYSGVNLTGFRILNVDNAHVSAIVEKWSMERLQAAPRAESGLLDGVMMTDAALLYDAVHIVSVCYQRASQMTVNSLQCHRHKPWRFGGRFMNFIKEAQWEGLTGRIVFNKTSGLRTDFDLDIISLKEDGLEKVGVWSPADGLNITEVAKGRGPNVTDSLTNRSLIVTTLLEEPFVMFRKSDRTLYGNDRFEGYCIDLLKELAHILGFSYEIRLVEDGKYGAQDDKGQWNGMVKELIDHKADLAVAPLTITHVREKAIDFSKPFMTLGVSILYRKPNGTNPSVFSFLNPLSPDIWMYVLLAYLGVSCVLFVIARFSPYEWYDAHPCNPGSEVVENNFTLLNSFWFGMGSLMQQGSELMPKALSTRIIGGIWWFFTLIIISSYTANLAAFLTVERMESPIDSADDLAKQTKIEYGAVKDGATMTFFKKSKISTFEKMWAFMSSKPSALVKNNEEGIQRTLTADYALLMESTTIEYITQRNCNLTQIGGLIDSKGYGIGTPMGSPYRDKITIAILQLQEEDKLHIMKEKWWRGSGCPEEENKEASALGIQKIGGIFIVLAAGLVLSVLVAVGEFIYKLRKTAEREQRSFCSTVADEIRFSLTCQRRLKHKPQPPMMVKTDAVINMHTFNDRRLPGKDSMSCSTSLAPVFP | decreases, 3.7 vs 9.5 | no change | no change, 3.2 ± 0.2 vs 3.8 ± 0.5 | no change, 0.8 vs 0.9
4 | GluK3: T249A/S404A (protein) parent chain: MTAPWRRLRSLVWEYWAGFLVCAFWIPDSRGMPHVIRIGGIFEYADGPNAQVMNAEEHAFRFSANIINRNRTLLPNTTLTYDIQRIHFHDSFEATKKACDQLALGVVAIFGPSQGSCTNAVQSICNALEVPHIQLRWKHHPLDNKDTFYVNLYPDYASLSHAILDLVQSLKWRSATVVYDDSTGLIRLQELIMAPSRYNIRLKIRQLPIDSDDSRPLLKEMKRGREFRIIFDCSHTMAAQILKQAMAMGMMTEYYHFIFTTLDLYALDLEPYRYSGVNLTGFRILNVDNAHVSAIVEKWSMERLQAAPRAESGLLDGVMMTDAALLYDAVHIVSVCYQRASQMTVNSLQCHRHKPWRFGGRFMNFIKEAQWEGLTGRIVFNKTSGLRTDFDLDIISLKEDGLEKVGVWSPADGLNITEVAKGRGPNVTDSLTNRSLIVTTLLEEPFVMFRKSDRTLYGNDRFEGYCIDLLKELAHILGFSYEIRLVEDGKYGAQDDKGQWNGMVKELIDHKADLAVAPLTITHVREKAIDFSKPFMTLGVSILYRKPNGTNPSVFSFLNPLSPDIWMYVLLAYLGVSCVLFVIARFSPYEWYDAHPCNPGSEVVENNFTLLNSFWFGMGSLMQQGSELMPKALSTRIIGGIWWFFTLIIISSYTANLAAFLTVERMESPIDSADDLAKQTKIEYGAVKDGATMTFFKKSKISTFEKMWAFMSSKPSALVKNNEEGIQRTLTADYALLMESTTIEYITQRNCNLTQIGGLIDSKGYGIGTPMGSPYRDKITIAILQLQEEDKLHIMKEKWWRGSGCPEEENKEASALGIQKIGGIFIVLAAGLVLSVLVAVGEFIYKLRKTAEREQRSFCSTVADEIRFSLTCQRRLKHKPQPPMMVKTDAVINMHTFNDRRLPGKDSMSCSTSLAPVFP | decreases, 5.3 vs 9.5 | no change | no change, 4.1 ± 0.2 vs 3.8 ± 0.5 | decreases, 0.3 vs 0.9
5 | GluK3: T397A/S404A (protein) parent chain: MTAPWRRLRSLVWEYWAGFLVCAFWIPDSRGMPHVIRIGGIFEYADGPNAQVMNAEEHAFRFSANIINRNRTLLPNTTLTYDIQRIHFHDSFEATKKACDQLALGVVAIFGPSQGSCTNAVQSICNALEVPHIQLRWKHHPLDNKDTFYVNLYPDYASLSHAILDLVQSLKWRSATVVYDDSTGLIRLQELIMAPSRYNIRLKIRQLPIDSDDSRPLLKEMKRGREFRIIFDCSHTMAAQILKQAMAMGMMTEYYHFIFTTLDLYALDLEPYRYSGVNLTGFRILNVDNAHVSAIVEKWSMERLQAAPRAESGLLDGVMMTDAALLYDAVHIVSVCYQRASQMTVNSLQCHRHKPWRFGGRFMNFIKEAQWEGLTGRIVFNKTSGLRTDFDLDIISLKEDGLEKVGVWSPADGLNITEVAKGRGPNVTDSLTNRSLIVTTLLEEPFVMFRKSDRTLYGNDRFEGYCIDLLKELAHILGFSYEIRLVEDGKYGAQDDKGQWNGMVKELIDHKADLAVAPLTITHVREKAIDFSKPFMTLGVSILYRKPNGTNPSVFSFLNPLSPDIWMYVLLAYLGVSCVLFVIARFSPYEWYDAHPCNPGSEVVENNFTLLNSFWFGMGSLMQQGSELMPKALSTRIIGGIWWFFTLIIISSYTANLAAFLTVERMESPIDSADDLAKQTKIEYGAVKDGATMTFFKKSKISTFEKMWAFMSSKPSALVKNNEEGIQRTLTADYALLMESTTIEYITQRNCNLTQIGGLIDSKGYGIGTPMGSPYRDKITIAILQLQEEDKLHIMKEKWWRGSGCPEEENKEASALGIQKIGGIFIVLAAGLVLSVLVAVGEFIYKLRKTAEREQRSFCSTVADEIRFSLTCQRRLKHKPQPPMMVKTDAVINMHTFNDRRLPGKDSMSCSTSLAPVFP | decreases, 5.7 vs 9.5 | no change | no change, 4.0 ± 0.4 vs 3.8 ± 0.5 | decreases, 0.5 vs 0.9
6 | GluK3: N721A glycan knockout (Methods: T723A) (protein) parent chain: MTAPWRRLRSLVWEYWAGFLVCAFWIPDSRGMPHVIRIGGIFEYADGPNAQVMNAEEHAFRFSANIINRNRTLLPNTTLTYDIQRIHFHDSFEATKKACDQLALGVVAIFGPSQGSCTNAVQSICNALEVPHIQLRWKHHPLDNKDTFYVNLYPDYASLSHAILDLVQSLKWRSATVVYDDSTGLIRLQELIMAPSRYNIRLKIRQLPIDSDDSRPLLKEMKRGREFRIIFDCSHTMAAQILKQAMAMGMMTEYYHFIFTTLDLYALDLEPYRYSGVNLTGFRILNVDNAHVSAIVEKWSMERLQAAPRAESGLLDGVMMTDAALLYDAVHIVSVCYQRASQMTVNSLQCHRHKPWRFGGRFMNFIKEAQWEGLTGRIVFNKTSGLRTDFDLDIISLKEDGLEKVGVWSPADGLNITEVAKGRGPNVTDSLTNRSLIVTTLLEEPFVMFRKSDRTLYGNDRFEGYCIDLLKELAHILGFSYEIRLVEDGKYGAQDDKGQWNGMVKELIDHKADLAVAPLTITHVREKAIDFSKPFMTLGVSILYRKPNGTNPSVFSFLNPLSPDIWMYVLLAYLGVSCVLFVIARFSPYEWYDAHPCNPGSEVVENNFTLLNSFWFGMGSLMQQGSELMPKALSTRIIGGIWWFFTLIIISSYTANLAAFLTVERMESPIDSADDLAKQTKIEYGAVKDGATMTFFKKSKISTFEKMWAFMSSKPSALVKNNEEGIQRTLTADYALLMESTTIEYITQRNCNLTQIGGLIDSKGYGIGTPMGSPYRDKITIAILQLQEEDKLHIMKEKWWRGSGCPEEENKEASALGIQKIGGIFIVLAAGLVLSVLVAVGEFIYKLRKTAEREQRSFCSTVADEIRFSLTCQRRLKHKPQPPMMVKTDAVINMHTFNDRRLPGKDSMSCSTSLAPVFP |  | abolishes |  | 
